The record followed here is publication PMC4930934.

The target in assay [1] is BMR–HFBI (diflavin reductase domain of P450 BM3 fused at its C-terminus to hydrophobin HFBI) (Bacillus megaterium | Trichoderma reesei) (UniProt P14779).
The target is the same in assay [2]. The source holds these as a separate data set.
The target is the same in assay [3]. This is another data set of the same source.

In assay [1], “BMO–HFBI (monooxygenase domain of P450 BM3 fused at its C-terminus to hydrophobin HFBI) (from UniProt P14779 1-472; P52754 23-97)” yielded a coupling efficiency (product formed per NADPH consumed) in myristic acid hydroxylation, P450:reductase 1:1 (1 μM each) of 57.4% and a coupling efficiency (product formed per NADPH consumed) in myristic acid hydroxylation, P450:reductase 1:5 (1 μM : 5 μM) of 92.7%. Further, the conversion of myristic acid with cofactor regeneration, equimolar ratio (1:1 μM), time course 2-24 h (49% after 2 h, 78% after 6 h, 99% after 24 h) in assay [2] is 99%. This substance also registered a conversion of myristic acid with cofactor regeneration, fivefold molar excess of reductase (1:5 μM), after 2 h in assay [3] of 97%.
